How the values were obtained:
Assay type in all cases: cell-based
MDA MB 231 cells [1] = assay: Cell migration, modified Boyden chamber method; details: 4 μM peptide, 2 days of treatment, 18 hr migration, FIG. 3B
Description: MDA MB 231 cells were transfected with pCK-flag (control), FOG2-wt (wild type) and FOG2 mutants having modified zinc finger domain (FOG2-ZF-5-m and FOG2-ZF-6-m). The cell migration was then analyzed using the modified Boyden chamber method (Albini A et al., Cancer Res 1987 47:3239-45). Following the transfection for 24 hr, MDA MB 231 cells (1×10^5) were suspended in a serum-free medium and seeded in triplicate in the upper part of BD chamber ([…] pore size). The lower part was filled with the serum-free medium. Following the incubation at 37° C. for 18 hr, non-migrating cells positioned at the upper surface of filters were cleaned with a cotton swab. The migrating cells passing through the lower surface of filters were fixed with 70% ethanol and treated with the Giemsa staining solution for 50 min. Then, the cells were rinsed with water and observed under a microscope. The cell migration rate was determined by counting the number of cells present in randomly-selected six sections and the migration range was expressed as the average number of cells per a microscopic field.
MDA MB 231 cells were incubated with 4 μM Mock (control, DMSO), 4 μM ZF-5-wt-24, 4 μM ZF-5-m-24, 4 μM ZF-5-wt-20 or 4 μM ZF-3-wt-21. After treatment, the cell migration was analyzed using the modified Boyden chamber method (Albini A et al., Cancer Res 1987 47:3239-45). After 2 days of treatment, MDA MB 231 cells (1×10^5) were suspended in the serum free medium and seeded in triplicate in the upper part of BD chamber ([…] pore size). The lower part was filled with the serum free medium. Following the incubation at 37° C. for 18 hr, non-migrating cells positioned at the upper surface of filters were cleaned with the cotton swab. The migrating cells passing through the lower side surface of filters were fixed with 70% ethanol and stained using the Giemsa stain method. The cell migration rate was determined by counting the number of cells present in randomly-selected six sections and the migration range was expressed as the average number of cells per a microscopic field.

PI3K [2] = molecular target: T1, PI3K (Homo sapiens, UniProt P27986); assay: IGF-1-induced PI3K activation in Hep3B cells incubated with peptides; parameters: The cell lysates were immunoprecipitated with p85α (sc-1637, Santa Cruz) and Protein G-Sepharose beads; endogenous in cells; host or cells: Hep3B; details: 4 μM peptides, 48 hr, FIG. 2C
Description: (§1) For measurement of PI3K activity, 10 μl of sonicated PIP2 (1 μg/μl, Calbiochem), 10 μl of 100 mM MgCl2 and 1 μl of [-^32P]ATP (500 μCi/ml) were added to the kinase buffer (10 mM Tris-HCl (pH 7.4), 150 mM NaCl, 1 mM Na3VO4, 10 mM ZnCl2) and incubated at 37° C. for 30 min. After incubation, 20 μl of 6 N HCl was added to stop the reaction and PIP2 was extracted by treatment with 200 μl of methanol:chloroform (1:1) solution. The amount of radioactively labeled PIP2 in the extract was measured using a scintillator counter.
In addition, Hep3B liver cancer cells were incubated with 4 μM peptides for 48 hr and the PI3K activity was analyzed.

MDA MB 231 cells [3] = assay: Cell proliferation MTT assay; details: synthesized peptide, increasing concentration, FIG. 6B
Description: Because the PI3K activation is critical in cell growth, the cell proliferation was analyzed to investigate the inhibitory effect of the FOG2 zinc finger domain using the MTT assay.
MDA MB 231 cells were seeded in a 96-well plate, and transfected with 100 ng DNA of pCKflag, FOG2-wt, FOG2-ZF-5-m or FOG2-ZF-6-m using Lipofectamine 2000. On 3 days post-transfection, the MTT assay was performed.
MDA MB 231 cells (2×10^3 cells) were seeded in a 96-well plate and treated with 4 μM each peptide for 3 days. After the treatment, 50 μl of MTT solution (2 mg/ml) was added to each well, incubated at 37° C. for 1 hr. Then, 150 μl of DMSO was added to each well and the absorbance value of each well was measured at 590 nm using a microplate reader.

PI3K [4] = molecular target: T1, PI3K; assay: PI3K activity in MDA MB 231 cells incubated with zinc finger domain peptides; parameters: The cell lysates were immunoprecipitated with p85α (sc-1637, Santa Cruz) and Protein G-Sepharose beads; endogenous in cells
Description: as §1
For peptide treatment, cells were trypsinized to detach them from a culture dish and their aliquot (2×10^5 cells) was incubated with 4 μM peptides in 100 mm dishes. The control was incubated with Mock (DMSO).

MDA MB 231 cells [5] = assay: Apoptosis by FACS analysis (propidium iodide) in MDA MB 231 cells; details: transfected with 1 μg FOG2 fragment, 2 days, FIG. 7A
Description: PI3K inactivation has been reported to cause cancer cell apoptosis, and FOG2 is known to inhibit the PI3K activity. To test whether PI3K inactivation by overexpressing FOG2 induces apoptosis, MDA MB 231 cells overexpressed FOG2 were analyzed with FACS.
MDA MB 231 cells were incubated with Full-FOG2[1-1151], FOG2[1-412], FOG2[413-789] or FOG2[802-1151]. The cells (5×10^4) were seeded in a 12-well plate and transfected with 1 μg of Full-FOG2[1-1151], FOG2[1-412], FOG2[413-789] or FOG2[802-1151] using Lipofectamine 2000. The cells were incubated at 37° C. for 2 days and subject to FACS analysis.
The cells were incubated with FOG2 fragments and fixed with 70% ethanol for 16 hr. The fixed cells were stained using RNase (5 mg/ml) and propidium iodide ([…]). The amount of DNA in stained cells was analyzed with Cell Quest program of FACS caliber (Becton Dickinson).

T1 sequence (P27986 whole entry): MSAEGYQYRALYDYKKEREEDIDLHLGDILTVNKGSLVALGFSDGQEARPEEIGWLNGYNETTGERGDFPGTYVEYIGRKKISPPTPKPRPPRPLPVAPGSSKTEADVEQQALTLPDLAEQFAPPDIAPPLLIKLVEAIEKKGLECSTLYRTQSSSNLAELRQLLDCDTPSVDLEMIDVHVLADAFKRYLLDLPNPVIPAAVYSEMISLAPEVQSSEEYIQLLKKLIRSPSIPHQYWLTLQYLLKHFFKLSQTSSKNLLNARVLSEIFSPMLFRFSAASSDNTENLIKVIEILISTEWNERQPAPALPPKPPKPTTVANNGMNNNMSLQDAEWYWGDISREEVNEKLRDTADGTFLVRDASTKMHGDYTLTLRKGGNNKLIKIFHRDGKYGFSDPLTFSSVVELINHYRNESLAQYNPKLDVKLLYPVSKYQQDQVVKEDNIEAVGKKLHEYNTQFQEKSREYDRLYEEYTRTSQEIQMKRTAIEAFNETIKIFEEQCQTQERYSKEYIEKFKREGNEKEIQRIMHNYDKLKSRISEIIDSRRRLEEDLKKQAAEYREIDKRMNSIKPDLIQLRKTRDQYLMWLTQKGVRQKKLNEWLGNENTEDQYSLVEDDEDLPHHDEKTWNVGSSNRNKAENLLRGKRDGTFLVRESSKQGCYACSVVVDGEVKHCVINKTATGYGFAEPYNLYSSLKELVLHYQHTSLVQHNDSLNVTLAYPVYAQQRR

Row | Molecule | IGF-1-induced PI3K activation (PI3K [2]) | inhibition of PI3K activity (PI3K [4]; MDA MB 231 cells, 4 μM peptide, 48 hr, relative to ZF-5-wt-24, FIG. 5B) | PI3K activity (PI3K [4]; synthesized peptides, FIG. 5) | reduction of cell migration (MDA MB 231 cells [1]) | inhibitory effect on cell proliferation (MDA MB 231 cells [3]) | number of apoptotic cells (MDA MB 231 cells [5])
1 | FOG2[413-789]: The FOG2 protein comprising the amino acid sequence ranging 413-789th amino acid residues of FOG2 full-length amino acid sequence (protein, UniProt Q8WW38 413-789, looked up, fragment) DLLTRSELPQSQKAMQTKDASSDTELDKCEKKTQLFLTNQRPEIQPTTNKQSFSYTKIKSEPSSPRLASSPVQPNIGPSFPVGPFLSQFSFPQDITMVPQASEILAKMSELVHRRLRHGSSSYPPVIYSPLMPKGATCFECNITFNNLDNYLVHKKHYCSSRWQQMAKSPEFPSVSEKMPEALSPNTGQTSINLLNPAAHSADPENPLLQTSCINSSTVLDLIGPNGKGHDKDFSTQTKKLSTSSNNDDKINGKPVDVKNPSVPLVDGESDPNKTTCEACNITFSRHETYMVHKQYYCATRHDPPLKRSASNKVPAMQRTMRTRKRRKMYEMCLPEQEQRPPLVQQRFLDVANLNNPCTSTQEPTEGLGECYHPRCD | – | – | – | – | – | increased
2 | FOG2[1-412]: Truncated FOG2 mutant in pCK-flag vector, residues 1-412 (protein, UniProt Q8WW38 1-412, looked up, fragment, FLAG tag) MSRRKQSKPRQIKRPLEDAIEDEEEECPSEETDIISKGDFPLEESFSTEFGPENLSCEEVEYFCNKGDDEGIQETAESDGDTQSEKPGQPGVETDDWDGPGELEVFQKDGERKIQSRQQLPVGTTWGPFPGKMDLNNNSLKTKAQVPMVLTAGPKWLLDVTWQGVEDNKNNCIVYSKGGQLWCTTTKAISEGEELIAFVVDFDSRLQAASQMTLTEGMYPARLLDSIQLLPQQAAMASILPTAIVNKDIFPCKSCGIWYRSERNLQAHLMYYCSGRQREAAPVSEENEDSAHQISSLCPFPQCTKSFSNARALEMHLNSHSGVKMEEFLPPGASLKCTVCSYTADSVINFHQHLFSHLTQAAFRCNHCHFGFQTQRELLQHQELHVPSGKLPRESDMEHSPSATEDSLQPAT | – | – | – | – | – | reduces the apoptosis

The next lines start with results.

Row | IGF-1-induced PI3K activation (PI3K [2]) | inhibition of PI3K activity (PI3K [4]; MDA MB 231 cells, 4 μM peptide, 48 hr, relative to ZF-5-wt-24, FIG. 5B) | PI3K activity (PI3K [4]; synthesized peptides, FIG. 5) | Molecule | reduction of cell migration (MDA MB 231 cells [1]) | inhibitory effect on cell proliferation (MDA MB 231 cells [3]) | number of apoptotic cells (MDA MB 231 cells [5])
3 | did not inhibit | – | – | ZF-3-wt-21: The peptide not comprising the fifth zinc finger domain of FOG2 (LKCTVCSYTADSVINFHQHLF) [reference compound] | not observed | – | –
4 | did not inhibit | approximately 30% | does not affect | ZF-5-m-24: FOG2 mutant peptide with altered fifth zinc finger domain (24 amino acids) (CFECNITFNNLDNYLYLVAKKAYC) | not observed | does not | –

From US20130116185A1, “PHOSPHATIDYLINOSITOL 3-KINASES ACTIVITY REGULATOR INCLUDING THE FIFTH ZINC FINGER DOMAIN OF FOG2” (SNU R&DB FOUNDATION, priority 2010, published 2013)
